Assay results: patent US20030061635A1, “Pollen-specific novel calmodulin-binding protein, NPG1 (No Pollen Germination1), promoter, coding sequences and methods for using the same” (priority 2001, published 2003)

How the values were obtained:
biotinylated CaM = target: T1, biotinylated CaM (Bos taurus, UniProt P62157); assay: Blot overlay of fusion proteins with biotinylated CaM; type: binding; conditions: in the presence of Ca2+
T1 construct: purchased Calbiochem-Novabiochem (San Diego, Calif.)
Procedure: Soluble and insoluble proteins from the induced and un-induced cultures were separated on 12% SDS-polyacrylamide gels and blotted as described above. To detect the binding of the expressed proteins to ^35S-labeled AtCaM, duplicate blots were blocked for 15 min in TBS (50 mM Tris-HCl, pH 7.5, 150 mM NaCl) containing 5 mM of either CaCl2 or EGTA and 1% nonfat dry milk. The blots were then incubated for 12 h in a mixture of ^35S-labeled AtCaM isoforms at […] in the same buffers as above. The filters were then washed with the corresponding buffer and dried before exposing to X-ray film. Binding to biotinylated CaM was detected by blocking the blots in 3% gelatin in TBS/Ca/Mg or TBS/EGTA/Mg (50 mM Tris-HCl, pH 7.5, 50 mM MgCl2, 150 mM NaCl, and 5 mM of either CaCl2 or EGTA) at 30° C. The blots were then incubated in […] biotinylated CaM for 2 h in TBS/Ca/Mg or TBS/EGTA/Mg containing 0.1% Tween 20 and 1% gelatin followed by three washes of 10 min each in the corresponding buffers above. The blots were then incubated in Vectastain ABC.HRP in TBS/Ca/Mg or TBS/EGTA/Mg for 30 min, washed 3 times, 10 min each, with the above buffer and the CaM-binding proteins were detected colorimetrically in a substrate solution (0.8 mg/ml diaminobenzidine, 0.4 mg/ml NiCl2, and 0.009% H2O2 in 100 mM Tris-HCl, pH 7.5).

35S-labeled AtCaM = assay: Blot overlay of bacterially expressed maize NPG1 fusion proteins with 35S-CaM; type: binding, Arabidopsis thaliana; conditions: in the presence of EGTA
Procedure: The 1.2-kb cDNA insert (named P3) containing the coding region for 242 amino acids in the carboxyl-terminal region was cloned in-frame into a pET28b expression vector. For mapping the CaM-binding domain, several truncated constructs were prepared in a pET vector. The P3 cDNA in pET28 was digested with either NcoI or BamHI to release a 168- or 717-bp fragment corresponding to the 5′ end of the cDNA. The NcoI and BamHI fragments were cloned into pET28b vector digested with the respective enzymes to generate P3/NcoI and P3/BamHI clones. The P3 clones lacking either NcoI or BamHI fragments were religated to generate PΔNcoI and PΔBamHI expression clones. […]
Soluble and insoluble proteins from the induced and un-induced cultures were separated on 12% SDS-polyacrylamide gels and blotted as described above. […] Binding to biotinylated CaM was detected by blocking the blots in 3% gelatin in TBS/Ca/Mg or TBS/EGTA/Mg (50 mM Tris-HCl, pH 7.5, 50 mM MgCl2, 150 mM NaCl, and 5 mM of either CaCl2 or EGTA) at 30° C. […] The blots were then incubated in Vectastain ABC.HRP in TBS/Ca/Mg or TBS/EGTA/Mg for 30 min, washed 3 times, 10 min each, with the above buffer and the CaM-binding proteins were detected colorimetrically in a substrate solution (0.8 mg/ml diaminobenzidine, 0.4 mg/ml NiCl2, and 0.009% H2O2 in 100 mM Tris-HCl, pH 7.5).

[1] = target: T2, HRP-CaM (Arabidopsis CaM2) (Arabidopsis thaliana, UniProt P0DH97); assay: HRP-CaM blot overlay assay; type: binding
T2 construct: made in house; host or cells: E. coli BL21(DE3)
Procedure: (§1) HRP was conjugated to CaM and used in blot overlay assays according to the procedure described by Lee et al. (1999) BBA 1433:56-67. Briefly, the Arabidopsis CaM2 was incubated in 25 mM Tris-HCl, pH 7, 2 mM EGTA, and 0.1 M DTT at 55° C. for 1.5 h and the reduced CaM was extensively dialyzed against phosphate-buffered saline at 4° C. Maleimide-activated HRP (Pierce Biotechnology, Inc., Rockford, Ill.) and reduced CaM were incubated at a molar ratio of 1:1 in phosphate-buffered saline at room temperature for 1.5 h. The resulting HRP-CaM complex was verified on a denaturing gel and used in blot-overlay assays. Protein blots were prepared as described above, rinsed in TBST (TBS containing 0.1% (v/v) Tween 20), and blocked by incubating in TBST plus 7% (w/v) non-fat dry milk overnight. The blocked membranes were washed three times, 5 min each, with TBST. […] The proteins that bound to HRP-CaM were detected by immersing the blots in a substrate solution as above.
Maize pollen proteins were extracted in a buffer containing 50 mM Tris-HCl, pH 7.4, 250 mM sucrose, 5 mM DTT, and complete protease inhibitor mixture. […] The absorbance of the eluted fractions was recorded at 235 and 280 nm to compare the elution profile of protein with EGTA. […]

CaM-Sepharose = target: T3, CaM-Sepharose (Bos taurus, UniProt P62157); assay: Native NPG1 from maize pollen on CaM-Sepharose column / pull-down with CaM-Sepharose beads; type: binding, bovine; conditions: bound with Ca2+, eluted with EGTA; maize pollen extract
T3 construct: purchased Amersham Pharmacia Biotech UK Ltd., Little Chalfont, Buckinghamshire, UK
Procedure: Maize pollen proteins were extracted in a buffer containing 50 mM Tris-HCl, pH 7.4, 250 mM sucrose, 5 mM DTT, and complete protease inhibitor mixture. The extract was first centrifuged at 14,000×g for 20 min and then at 100,000×g for 15 min at 4° C. to obtain the supernatant containing soluble proteins. Prior to loading the supernatant onto the CaM-Sepharose column (Amersham Pharmacia Biotech UK Ltd., Little Chalfont, Buckinghamshire, UK) the concentration of Ca^2+ was adjusted to 1.25 mM. The flow-through was collected and saved. The column was washed thoroughly with binding buffer (50 mM Tris-HCl, pH 7.5, 150 mM NaCl, 1.25 mM CaCl2) to remove unbound proteins. Washes equivalent to 1-bed volume of the column were collected and saved. The CaM-binding proteins were eluted with elution buffer (50 mM Tris-HCl, pH 7.5, 150 mM NaCl, 5 mM EGTA). The absorbance of the eluted fractions was recorded at 235 and 280 nm to compare the elution profile of protein with EGTA. Initial soluble extract, flow-through, wash fraction, and eluted protein were separated on three denaturing gels. One gel was stained with Coomassie Blue and the other two were blotted onto nitrocellulose membranes and probed with NPG1-specific antibody or HRP-CaM.
[…] of pollen soluble proteins prepared as described above were mixed and incubated with 0.2 ml of CaM-Sepharose beads at room temperature for 30 min. […]

CaM-Sepharose beads = assay: Bacterially expressed AtNPG1 binding to CaM-Sepharose beads; conditions: eluted with EGTA-containing buffer
Procedure: A 2.0 kb EcoRI fragment of AtNPG1 cDNA containing the entire coding region was subcloned into pET28a and the orientation of the cDNA was confirmed by restriction analysis and sequencing. Induction of fusion protein, its purification on CaM Sepharose column and detection with horseradish peroxidase CaM isoforms was performed essentially as described earlier (Reddy and Reddy (2000) J. Biol. Chem. 275:35457-35470).

[2] = test system: Arabidopsis CaM isoform-2, -4 and -6; assay: Blot overlay of purified AtNPG1 with horseradish peroxidase labeled Arabidopsis CaM isoforms; type: binding, Arabidopsis thaliana; conditions: absence or presence of calcium
Procedure: as §1, with “TBST. After equilibration in the overlay buffer (50 mM imidazole-HCl, pH 7.5, and 150 mM NaCl) for 1 h, the membranes were incubated for 1 h in overlay buffer containing 0.1% gelatin and […] HRP-CaM. The HRP-CaM overlay blots were washed sequentially in three buffers. Wash with each buffer was performed five times for 5 min each.” for “TBST.”, “above. […]” for “above.”

| Molecule | binding to biotinylated CaM (biotinylated CaM) | binding to CaM (35S-labeled AtCaM) | detection by HRP-CaM in blot overlay [1] | binding of native protein to CaM-Sepharose (CaM-Sepharose) | binding to CaM-Sepharose beads (CaM-Sepharose beads) | binding to Arabidopsis CaM isoforms in blot overlay [2] |
| --- | --- | --- | --- | --- | --- | --- |
| NPG1: maize pollen-specific calmodulin-binding protein, 659 amino acid residues, about 72 kDa, SEQ ID NO:1 (protein, X: residue not identified in the source) MPLIRYYVDHVHVAVEARALLGRLEFQKGNVEVALRVFDGIDLQAAIQQFQPSLSDKTPSKKGRTKSEIPSSVPQNNPASLVLEAIYLKSLSLQKLGKSTEAANQCKSVLDSVESIFQNGAPDIEQKLQETVNKSVELLPEAWKHAGSNQEALASYRRALLSPWNLDDECRTRVQKRFASFLLYXTNIDWSPPSMAQQVEGCFVPKNSVEEAVLLLMVVLRSWYQGKTHWDPSVMEHLTYALSLCGEPLVLAKQLEEVLPGVYPRTERWATLALCYYVAGQKDVALNFLRKSLNKLENPNDVLALLLAAKICSKERHLASEGVEYARRVIACAESSDPHLKSVGLHFLGSCLGNKSKVVSSDYQRSLLQTETLKSFAESIGLNRYNADLIFDMGVEYAEQRNMNAALRCAKEFIEATGGSVSKGWRLLALILSAQQRFSEAEVATDAALDETAKLDQGSLLRVKAKLKVAQSSPMEAVEAYRALLALVQAQKNSPGGSCKSATEDADGSVSEFEIWQGLANLYSSLSYWRDAEICLNKARALKLYSAATLHAEGYMHEARDQTTDALAAYVNAFSTELEHVPSKVAIGAMLSKQGPRFLPAARCFLSDALRVEPTNRMAWLYLGKVHRSDGRISDAADCFQAAVMLEESDPVESFSSLS | did not bind to biotinylated CaM | No binding to CaM was observed | also detected by HRP-CaM | binds CaM in the presence of Ca^2+ | – | – |
| AtNPG1: Arabidopsis NPG1, protein of 704 amino acids, SEQ ID NO:10, bacterially expressed as T7 tag fusion (protein, listed as Arabidopsis thaliana, T7 tag fusion) MLGNQSADFSEKGEDEIVRQLCANGICMKTTEVEAKLDEGNIQEAESSLREGLSLNFEEARALLGRLEYQRGNLEGALRVFEGIDLQAAIQRLQVSVPLEKPATKKNRPREPQQSVSQHAANLVLEAIYLKAKSLQKLGRITEAAHECKSVLDSVEKIFQQGIPDAQVDNKLQETVSHAVELLPALWKESGDYQEAISAYRRALLSQWNLDNDCCARIQKDFAVFLLHSGVEASPPSLGSQIEGSYIPRNNIEEAILLLMILLKKFNLGKAKWDPSVFEHLTFALSLCSQTAVLAKQLEEVMPGVFSRIERWNTLALSYSAAGQNSAAVNLLRKSLHKHEQPDDLVALLLAAKLCSEEPSLAAEGTGYAQRAINNAQGMDEHLKGVGLRMLGLCLGKQAKVPTSDFERSRLQSESLKALDGAIAFEHNNPDLIFELGVQYAEQRNLKAASRYAKEFIDATGGSVLKGWRFLALVLSAQQRFSEAEVVTDAALDETAKWDQGPLLRLKAKLKISQSNPTEAVETYRYLLALVQAQRKSFGPLRTLSQMEEDKVNEFEVWHGLAYLYSSLSHWNDVEVCLKKAGELKQYSASMLHTEGRMWEGRKEFKPALAAFLDGLLLDGSSVPCKVAVGALLSERGKDHQPTLPVARSLLSDALRIDPTNRKAWYYLGMVHKSDGRIADATDCFQAASMLEESDPIESFSTIL | – | – | – | – | bound CaM-Sepharose beads in a calcium-dependent manner | bound three Arabidopsis CaM isoforms in a calcium-dependent manner |
